The values that follow come from patent US20230374088A1 (GENERAL HOSPITAL, published 2023).

Experiment [1] has as its target T1, GMPCPP-stabilized microtubules (porcine, UniProt P02554 1-445).
T1 construct: Polymer of tubulin heterodimers; in TIRF partly labeled with X-rhodamine/HiLyte 647 and biotin; also called MT; GMPCPP-microtubule lattice
In words: TIRF microscopy, GFP intensity on microtubules, no Gli2-ZF.

The target in a further experiment is T2, Gli2-ZF-SNAP (human, UniProt P10070 418-604, Alexa 647 dye on the SNAP tag in the TIRF assays).
T2 construct: Labeled with Alexa 647 for TIRF microscopy; used unlabeled (as far as told) for cryo-EM; also called Gli2-ZF-SNAP-Alexa 647; Gli2-ZF-Alexa 647; not shown: C-terminal SNAP tag
T2 sequence (looked up): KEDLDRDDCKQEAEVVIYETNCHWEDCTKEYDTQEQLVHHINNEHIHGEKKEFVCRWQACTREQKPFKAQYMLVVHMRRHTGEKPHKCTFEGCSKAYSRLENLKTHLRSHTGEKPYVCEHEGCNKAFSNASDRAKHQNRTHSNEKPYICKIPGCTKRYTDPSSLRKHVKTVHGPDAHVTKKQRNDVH
The experiment in a line: TIRF microscopy; 100 nM Gli2-ZF-SNAP-Alexa647 with 100 nM kinesin on microtubules. The text has this:
Briefly, fluorescently labeled (Rhodamine/HiLyte-647) and biotinylated microtubule seeds, polymerized with the non-hydrolyzable GTP analog GMPCPP, were immobilized on a glass coverslip through neutravidin-biotin linkages (FIG. 4A). GMPCPP was chosen as it mimics the GTP-form of tubulin present at microtubule ends (Jiang et al., Developmental cell, 49, 711-730. e8 2019). […] A Gli2 control was used to measure non-specific binding of Gli2-ZF to microtubules. Single molecule photobleaching of purified Kif7-DM confirmed that it is a dimer (FIGS. 11A-D).
To address which of the two Gli-interaction sites of Kif7 plays a role in modulating Kif7 microtubule binding, we generated two chimeric proteins where we swapped either the motor and neck-linker (M) or the coiled-coil (CC) domains of Kif7 and Kif27 (Kif7M-Kif27CC and Kif27M-Kif7CC) (FIG. 5E). […] The binding affinity for each of the two Gli interaction sites on Kif7-DM could be determined using BLI (FIG. 12H). We compared the two chimeras to Kif7-DM in TIRF microscopy-based microtubule binding assay. […] Next, we compared how the microtubule binding of the chimeras were regulated by Gli with respect to Kif7-DM.

Experiment [2] has as its target T3, Gli2-ZF (418-604aa; zinc finger domain of Gli2) (human, UniProt P10070 418-604).
T3 construct: Expressed with an HRV-cleavable N-terminal 6xHis tag, cleaved 'if needed'; also called Gli-ZF
T3 sequence (looked up): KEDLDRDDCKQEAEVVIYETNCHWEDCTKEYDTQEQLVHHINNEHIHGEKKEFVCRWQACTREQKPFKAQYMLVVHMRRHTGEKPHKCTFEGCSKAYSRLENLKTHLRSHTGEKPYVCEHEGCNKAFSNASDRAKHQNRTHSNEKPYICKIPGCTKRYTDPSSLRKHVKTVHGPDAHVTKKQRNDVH
In words: BLI; GST-Kif7-SCC on sensor, Gli2-ZF as analyte, Hill fit.

For another experiment, the target named is T4, GST-Kif7-CC (460-600aa) (human, UniProt Q2M1P5 460-600).
T4 construct: held on the BLI sensor through the GST tag; also called Kif7 coiled-coil domain; coiled-coil dimerization domain fragment of Kif7; not shown: N-terminal GST tag (HRV protease cleavable, modified pGEX vector)
T4 sequence: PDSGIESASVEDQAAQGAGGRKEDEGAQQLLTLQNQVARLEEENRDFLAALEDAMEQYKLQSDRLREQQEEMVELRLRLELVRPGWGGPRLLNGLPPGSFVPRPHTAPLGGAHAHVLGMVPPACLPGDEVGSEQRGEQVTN
The experiment in a line: BLI association step, GST-Kif7-CC on the sensor, soluble truncation at 125 nM [panel C]. The protocol: Equilibrium dissociation constants Kd (shown in parenthesis) were determined by fitting complete binding curves to Hill equation (See FIG. 10C). See also FIGS. 10A, 10B & 10C. Data is representative trace of a minimum of three repeats.
BLI experiments were performed in an Octet Red 96 instrument (ForteBio). To quantify Kif7-Gli2 binding, Experiments were performed in an assay buffer containing 40 mM TRIS pH7.3, 40 mM KCl, 40 μM ATP 1 mM MgCl₂, 0.12% tween and 0.5 mM TCEP. In the simplest assay, dimeric GST-Kif7-CC at a concentration of 120 nM is immobilized on an anti-GST biosensor chip. Unbound Kif7 is washed away with buffer, and the chips are then dipped into buffer with a range of Gli2-ZF concentrations from 0-1 μM to allow for association of the two proteins. After 300 seconds, they are then moved back into a well with just buffer to allow dissociation for 400 seconds. The equilibrium response of each sensor from three independent repeats at each Gli2 concentration were normalized and plotted against Gli2 concentration and fitted with a Hill function to obtain a Kₜ. […] The assays were also performed with HIS-tagged Kif7-DM and the Kif7-Kif27 chimeric proteins, requiring the use of an anti-penta-HIS biosensor chip, and referencing sensors to account for non-specific binding of Gli2 to the HIS sensor. A flipped assay, using HIS-tagged Gli2 on the sensor and a range of Kif7 concentrations in buffer, was also conducted.

T1 sequence (P02554 whole entry): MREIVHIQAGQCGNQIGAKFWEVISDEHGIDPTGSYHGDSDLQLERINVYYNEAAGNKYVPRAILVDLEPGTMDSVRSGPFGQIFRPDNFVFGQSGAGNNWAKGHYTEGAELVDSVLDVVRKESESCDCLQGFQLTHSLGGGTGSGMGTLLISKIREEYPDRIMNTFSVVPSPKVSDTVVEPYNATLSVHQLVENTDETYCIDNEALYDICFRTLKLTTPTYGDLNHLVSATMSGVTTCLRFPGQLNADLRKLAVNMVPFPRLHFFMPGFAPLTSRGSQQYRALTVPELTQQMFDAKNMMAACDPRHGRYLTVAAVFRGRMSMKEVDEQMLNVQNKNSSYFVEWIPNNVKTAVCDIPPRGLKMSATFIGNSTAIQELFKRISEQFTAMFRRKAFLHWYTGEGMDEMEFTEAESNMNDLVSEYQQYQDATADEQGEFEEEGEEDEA

B1: Kif7M-Kif27CC chimera (other, human)
chain: MGLEAQRLPGAEEAPVRVALRVRPLLPKELLHGHQSCLQVEPGLGRVTLGRDRHFGFHVVLAEDAGQEAVYQACVQPLLEAFFEGFNATVFAYGQTGSGKTYTMGEASVASLLEDEQGIVPRAMAEAFKLIDENDLLDCLVHVSYLEVYKEEFRDLLEVGTASRDIQLREDERGNVVLCGVKEVDVEGLDEVLSLLEMGNAARHTGATHLNHLSSRSHTVFTVTLEQRGRAPSRLPRPAPGQLLVSKFHFVDLAGSERVLKTGSTGERLKESIQINSSLLALGNVISALGDPQRRGSHIPYRDSKITRILKDSLGGNAKTVMIACVSPSSSDFDETLNTLNYASRAQNIRNRATVNWRPEAERPPEETASGARGPPRHRSETRIIHRGRRAPGPATASAAAAMRLGAECARYRACTDAAYSLLRELQAEPGLPGAAARKVRDWLCAVEGERSALSSASGPDSVLQLKRELKKCQCVLAADEVVFNQKELEVKELKNQVQMMVQENKGHAVSLKEAQKVNRLQNEKIIEQQLLVDQLSEELTKLNLSVTSSAKENCGDG
notes: range 475-570; not shown: HIS tag (used for BLI); GFP tag
Consider B1, for which, in experiment [1], the “fold binding to microtubules compared to Kif7-DM (GFP intensity)” value was around 10 fold. Moreover, the “fold decrease in Gli recruitment on microtubules compared to Kif7-DM (Alexa-647 intensity per GFP intensity)” value with Gli2-ZF-SNAP amounted to 3 fold.

B2: GST-Kif7-SCC (481-543aa) (other)
chain: KEDEGAQQLLTLQNQVARLEEENRDFLAALEDAMEQYKLQSDRLREQQEEMVELRLRLELVRP
notes: The limits of the results section are used; also called shorter coiled-coil segment of Kif7-CC; not shown: GST tag, by the name GST-Kif7-SCC
With B2, the Kd in experiment [2] came to 69 nM.

B3: ZF3-5 (500-604) (other, human, UniProt P10070 500-604, looked up)
Gli2 zinc-finger truncation: EKPHKCTFEGCSKAYSRLENLKTHLRSHTGEKPYVCEHEGCNKAFSNASDRAKHQNRTHSNEKPYICKIPGCTKRYTDPSSLRKHVKTVHGPDAHVTKKQRNDVH
notes: residues 500-604; One of the three truncations of the group m9; also called Gli2-ZF truncation ZF3-5
For B3, the binding result with GST-Kif7-CC (460-600aa) is reported as “no binding (tested: 125 nM)”.

B4: ZF4-5 (530-604) (other, human, UniProt P10070 530-604, looked up)
Gli2 zinc-finger truncation: EKPYVCEHEGCNKAFSNASDRAKHQNRTHSNEKPYICKIPGCTKRYTDPSSLRKHVKTVHGPDAHVTKKQRNDVH
notes: residues 530-604; One of the three truncations of the group m9; also called Gli2-ZF truncation ZF4-5
Consider B4, for which, in the experiment with GST-Kif7-CC (460-600aa), the binding result is listed as “no binding (tested: 125 nM)”.
